According to patent US20150164800A1, “REGULATING THE INTERACTION BETWEEN TAM LIGANDS AND LIPID MEMBRANES WITH EXPOSED PHOSPHATIDYL SERINE” (priority 2012, published 2015):

Tests used:
[1] = molecular target: T1, Mer (Mus musculus, UniProt Q60805); assay: Gas6-stimulated TAM receptor activation (phosphotyrosine IP-immunoblot) in BMDMs, Mer; type: cell-based; settings: WT-BMDMs pre-treated 30 min, stimulated with 10 nM Gas6 for 10 min; FIG. 4B
Protocol: Immunoprecipitation and immunoblot analysis was conducted as described above.

[2] = test system: EbGP-pseudotyped virus; type: cell-based, mouse; settings: 300 nM, 24 h post-infection, FIG. 4C
[3] = molecular target: Axl (Mus musculus, UniProt Q00993); type: cell-based
Sequence of Axl (Mus musculus, UniProt Q00993) (Q00993 19-888): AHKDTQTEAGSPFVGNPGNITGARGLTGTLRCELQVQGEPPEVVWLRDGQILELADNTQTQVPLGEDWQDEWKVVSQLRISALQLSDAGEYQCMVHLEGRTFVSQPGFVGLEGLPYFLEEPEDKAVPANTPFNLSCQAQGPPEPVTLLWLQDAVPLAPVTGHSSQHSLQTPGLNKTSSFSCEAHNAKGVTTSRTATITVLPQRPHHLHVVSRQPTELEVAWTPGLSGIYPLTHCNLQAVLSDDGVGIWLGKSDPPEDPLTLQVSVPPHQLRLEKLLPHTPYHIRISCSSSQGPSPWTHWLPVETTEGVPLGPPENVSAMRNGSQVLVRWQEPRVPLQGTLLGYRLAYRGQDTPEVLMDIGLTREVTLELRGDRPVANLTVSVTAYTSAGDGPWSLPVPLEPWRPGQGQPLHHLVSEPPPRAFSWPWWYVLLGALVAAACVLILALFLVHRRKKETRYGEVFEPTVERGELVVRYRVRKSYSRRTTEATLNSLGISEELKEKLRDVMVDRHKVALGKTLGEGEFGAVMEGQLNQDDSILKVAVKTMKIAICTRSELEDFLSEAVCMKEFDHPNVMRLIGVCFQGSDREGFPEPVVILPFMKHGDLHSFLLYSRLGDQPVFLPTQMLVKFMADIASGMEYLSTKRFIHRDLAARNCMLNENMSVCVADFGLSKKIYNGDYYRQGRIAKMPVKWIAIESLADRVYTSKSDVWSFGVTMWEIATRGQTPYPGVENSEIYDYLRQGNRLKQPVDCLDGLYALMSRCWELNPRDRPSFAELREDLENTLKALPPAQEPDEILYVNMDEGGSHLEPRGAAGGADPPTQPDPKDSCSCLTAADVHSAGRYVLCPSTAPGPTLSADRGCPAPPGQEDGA

[4] = molecular target: T1, Mer; type: cell-based; settings: WT-BMDCs
[5] = test system: Axl; type: cell-based, mouse; settings: 100 nM, BMDCs; FIG. 5B
Sequence of Axl (Q00993 19-888): as above

[6] = test system: DENV; settings: Axl-expressing HEK293 cells; concentration approximately 7-fold higher than 100 nM; Meertens et al. (2012); cited from earlier work

T1 sequence (Q60805 19-994): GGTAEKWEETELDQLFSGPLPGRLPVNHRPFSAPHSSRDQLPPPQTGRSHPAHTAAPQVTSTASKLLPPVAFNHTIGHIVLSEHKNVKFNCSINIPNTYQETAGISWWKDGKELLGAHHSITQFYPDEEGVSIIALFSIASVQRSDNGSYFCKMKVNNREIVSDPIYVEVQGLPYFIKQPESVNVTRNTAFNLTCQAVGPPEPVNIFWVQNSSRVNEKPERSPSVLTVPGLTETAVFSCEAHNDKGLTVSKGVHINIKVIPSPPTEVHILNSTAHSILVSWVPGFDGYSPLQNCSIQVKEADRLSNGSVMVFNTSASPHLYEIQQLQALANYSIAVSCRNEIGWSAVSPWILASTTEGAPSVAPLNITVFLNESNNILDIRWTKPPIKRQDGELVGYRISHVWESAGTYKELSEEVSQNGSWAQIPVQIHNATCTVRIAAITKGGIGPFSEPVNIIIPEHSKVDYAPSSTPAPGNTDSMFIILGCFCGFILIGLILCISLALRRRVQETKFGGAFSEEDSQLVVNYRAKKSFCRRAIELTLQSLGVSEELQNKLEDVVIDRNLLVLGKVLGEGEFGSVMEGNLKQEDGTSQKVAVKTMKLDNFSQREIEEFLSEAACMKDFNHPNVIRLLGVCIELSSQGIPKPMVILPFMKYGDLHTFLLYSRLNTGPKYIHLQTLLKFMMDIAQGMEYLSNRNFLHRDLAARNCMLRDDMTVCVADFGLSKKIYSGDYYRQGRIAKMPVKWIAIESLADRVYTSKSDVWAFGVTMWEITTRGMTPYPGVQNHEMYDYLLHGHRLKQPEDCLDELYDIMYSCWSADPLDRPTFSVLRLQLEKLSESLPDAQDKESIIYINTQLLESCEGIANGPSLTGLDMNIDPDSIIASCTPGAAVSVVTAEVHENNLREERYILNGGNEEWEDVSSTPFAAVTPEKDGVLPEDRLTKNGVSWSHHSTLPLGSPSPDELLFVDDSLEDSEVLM

CCOc1ccn(-c2ccc(F)cc2)c(=O)c1C(=O)Nc1ccc(Oc2ccnc(N)c2Cl)c(F)c1 [BMS-777607]
concentrations effectively inhibiting ligand-dependent receptor activation (Mer) [1]: 30 to 300 nM | effect on infection deficiency of TAM TKO BMDCs (HIV-1 DNA level) ([2]; TAM TKO-BMDCs): not further reduced | susceptibility to virus infection (HIV-1 DNA level) versus untreated WT BMDCs ([2]; WT-BMDCs): much less susceptible

Gas6: recombinant mouse Gas6, pan-TAM ligand
potentiation of Gas6-induced Axl activation by bald HIV-1 virions versus VSVg-pseudotyped virions ([3]; BMDCs, bald virions lacking viral glycoproteins, FIG. 6B): equally competent | virus-mediated potentiation of ligand-triggered signaling with MAV-1 (Axl) ([3]; WT-BMDCs, 1 nM mGas6 plus non-enveloped MAV-1): not seen | Axl activation by ligand alone ([3]; WT-BMDCs, 0.25-1 nM mGas6, 5 min, FIG. 2B): rapid dose-dependent activation | effect of VSVg pseudotyped virus on stimulatory effect of ligand (Axl activation) ([3]; WT-BMDCs, ligand plus enveloped VSVg pseudotyped virus, dose-response shifted to lower concentrations): dramatically potentiated

Protein S: purified human Protein S, TAM ligand (Mer and Tyro3 ligand)
virus-mediated potentiation of ligand-triggered signaling with MAV-1 (Mer) ([4]; 1 nM hProS plus non-enveloped MAV-1): not seen | Mer activation by ligand alone ([4]; 0.5-2 nM hProS, 5 min, FIG. 2A): rapid dose-dependent activation | effect of VSVg pseudotyped virus on stimulatory effect of ligand (Mer activation) ([4]; ligand plus enveloped VSVg pseudotyped virus, dose-response shifted to lower concentrations): dramatically potentiated

B1: Annexin V: a known PtdSer-binding protein (protein, UniProt P08758 2-320, looked up)
Annexin A5: AQVLRGTVTDFPGFDERADAETLRKAMKGLGTDEESILTLLTSRSNAQRQEISAAFKTLFGRDLLDDLKSELTGKFEKLIVALMKPSRLYDAYELKHALKGAGTNEKVLTEIIASRTPEELRAIKQVYEEEYGSSLEDDVVGDTSGYYQRMLVVLLQANRDPDAGIDEAQVEQDAQALFQAGELKWGTDEEKFITIFGTRSVSHLRKVFDKYMTISGFQIEETIDRETSGNLEQLLLAVVKSIRSIPAYLAETLYYAMKGAGTDDHTLIRVMVSRSEIDLFNIRKEFRKNFATSLYSMIKGDTSGDYKKALLLLCGEDD
effect on VSVg-HIV potentiation of the Gas6 dose-response curve for Axl activation [5]: significantly attenuated | reduction in DENV infection [6]: ~60%
